Data published in US20220105163A1.

How the values were obtained:
[1] = molecular target: Recombinant human IL-6 (human) (UniProt P05231); assay: cell-based or functional assay
[2] = molecular target: IL-6 receptor on TF-1 cells (human) (UniProt P08887); assay: cell-based or functional assay
Sequence of IL-6 receptor on TF-1 cells (human) (P08887 20-468): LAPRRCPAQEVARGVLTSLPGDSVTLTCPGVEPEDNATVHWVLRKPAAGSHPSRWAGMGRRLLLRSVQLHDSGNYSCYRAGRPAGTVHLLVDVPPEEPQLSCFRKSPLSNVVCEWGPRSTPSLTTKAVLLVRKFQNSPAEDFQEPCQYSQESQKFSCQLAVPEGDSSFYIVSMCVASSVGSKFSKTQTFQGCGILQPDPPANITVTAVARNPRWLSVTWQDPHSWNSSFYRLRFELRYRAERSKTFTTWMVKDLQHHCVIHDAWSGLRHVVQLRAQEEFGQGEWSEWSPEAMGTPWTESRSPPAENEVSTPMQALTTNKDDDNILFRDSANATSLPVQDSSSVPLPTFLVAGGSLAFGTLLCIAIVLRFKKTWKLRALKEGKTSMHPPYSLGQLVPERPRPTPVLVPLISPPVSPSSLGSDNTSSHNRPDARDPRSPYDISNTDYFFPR

Sequence of Recombinant human IL-6 (human) (P05231 30-212 limits assumed): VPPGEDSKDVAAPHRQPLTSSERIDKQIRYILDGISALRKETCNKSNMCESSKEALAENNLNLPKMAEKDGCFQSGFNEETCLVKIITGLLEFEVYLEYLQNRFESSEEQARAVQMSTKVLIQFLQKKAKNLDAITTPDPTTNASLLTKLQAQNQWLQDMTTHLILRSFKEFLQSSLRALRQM

Substance	IC50 (µg/mL), IL-6 induced TF-1 proliferation [1] [µg/mL]	IC50 (µg/mL), IL-6 induced TF-1 proliferation [2] [µg/mL]
Non GP IgG (antibody)	> 100	–
Tocilizumab (antibody)	–	0.365
